Assay results: patent US20130224191A1, “NOTUM PROTEIN MODULATORS AND METHODS OF USE” (priority 2010, published 2013)

Legend:
[1] = biological target: T1, hNotum (Homo sapiens, UniProt Q6P988); assay: Inhibition of hNotum esterase activity; type: biochemical; details: preincubation with hNotum
T1 construct: 8x-His; Strep-tag II; IgK signal peptide/leader of the pSEC-CAG vector (N); made in house; host or cells: HEK293T (adherent) / suspension 293 cells
T1 sequence (Q6P988 20-496): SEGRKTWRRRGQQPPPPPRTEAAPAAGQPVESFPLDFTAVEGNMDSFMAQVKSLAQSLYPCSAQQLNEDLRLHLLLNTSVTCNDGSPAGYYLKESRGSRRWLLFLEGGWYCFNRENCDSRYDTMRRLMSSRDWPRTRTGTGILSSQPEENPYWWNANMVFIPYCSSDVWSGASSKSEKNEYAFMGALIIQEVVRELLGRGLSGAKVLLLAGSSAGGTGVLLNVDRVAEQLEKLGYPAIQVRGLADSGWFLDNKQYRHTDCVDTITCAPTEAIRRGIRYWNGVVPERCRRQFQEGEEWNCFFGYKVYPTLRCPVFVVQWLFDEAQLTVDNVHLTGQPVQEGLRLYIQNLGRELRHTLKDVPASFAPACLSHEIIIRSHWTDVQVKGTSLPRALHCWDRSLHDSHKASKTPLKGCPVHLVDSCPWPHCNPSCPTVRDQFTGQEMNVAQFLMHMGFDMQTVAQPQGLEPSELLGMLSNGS
Experimental: Briefly, PNPA or PNPB were dissolved/diluted in isopropanol to final concentrations of 10 mM. These substrate solutions were diluted 1:10 into assay buffer (0.1% gum arabic, 2.3 mg/mL sodium dexoycholate, 1×PBS) and incubated with defined amounts of hNotum enzyme, and the enzymatic release of the chromophore p-nitrophenol monitored by absorbance measurements at 405 nm.
The results presented immediately above indicate that the measured esterase activity may be used to provide an assay that allows for the further characterization of the disclosed Notum modulators. […] As may be seen in FIG. 18A an increase in hNotum levels increases measured enzymatic activity even, to some extent, in the case where the SC2.D2.2 antibody is present. Conversely, FIG. 18B provides a dose response curve of measured enzymatic activity where the amount of hNotum is fixed at 1 μg/mL and the concentration of SC2.D2.2 is varied. […] In contrast a control antibody (MOPC) has no effect on the esterase activity of Notum (data not shown).

[2] = biological target: T2, mouse Notum (construct not specified at the place of use) (mouse, UniProt Q8R116 20-503, limits assumed); assay: ELISA, Notum coated directly on plate
T2 construct: Purified antigen from transient transfection of mouse Notum cDNA; also called murine Notum
T2 sequence (looked up): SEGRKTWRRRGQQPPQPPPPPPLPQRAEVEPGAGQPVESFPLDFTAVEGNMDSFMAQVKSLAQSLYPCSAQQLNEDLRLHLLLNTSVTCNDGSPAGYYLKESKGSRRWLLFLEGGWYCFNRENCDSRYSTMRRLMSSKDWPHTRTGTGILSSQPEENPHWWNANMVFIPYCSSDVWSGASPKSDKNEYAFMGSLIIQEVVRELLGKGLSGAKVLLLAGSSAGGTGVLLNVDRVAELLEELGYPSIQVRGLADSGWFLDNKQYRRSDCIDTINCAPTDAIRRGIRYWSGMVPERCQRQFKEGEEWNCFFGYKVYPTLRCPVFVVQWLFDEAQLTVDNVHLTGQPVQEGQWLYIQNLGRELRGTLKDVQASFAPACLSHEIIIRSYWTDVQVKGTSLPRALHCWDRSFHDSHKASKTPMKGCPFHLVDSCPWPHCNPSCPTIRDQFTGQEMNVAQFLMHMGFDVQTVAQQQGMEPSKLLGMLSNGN

[3] = biological target: T3, human Notum (recombinant or endogenous; construct not specified at the place of use) (human, UniProt Q6P988 20-496); assay: SPR (Biacore), antigen at 12.5 to 0.78125 nM, 1:1 Langmuir binding model
T3 construct: also called hNotum; human Notum protein
T3 sequence: T1 sequence (Q6P988 20-496)
Experimental: Binding characteristics for antibodies were assessed using antibody capture Biacore technology. Disassociation constant values Kd (koff/kₒₙ) were determined for selected antibodies. A Biacore 3000 (GE Healthcare) biosensor was used for surface plasmon resonance (SPR) kinetic measurements. Using purified antibody quantitative koff constants were derived through capture the antibody on the sensor surface. Anti-mouse IgG was immobilized on the CM5 surface of sensor chip using standard amine coupling chemistry. Each mAb was captured onto an anti-IgG surface before the antigen was injected over the immobilized antibody allowing the antibody-antigen interaction to be analyzed.
Three methods were used to characterize the affinity of humanized SC2.D2.2 relative to its analogous mAb with the murine variable region. First, binding signal was measured for a fixed amount of antibody probed against serial dilutions of antigen in an ELISA format. Measured signal levels were substantially similar (data not shown). Second, the affinity of murine SC2.D2.2 was measured by Biacore using surface plasmon resonance (SPR) to provide the results set forth in FIG. 32A. […] Long off-rates for this interaction made accurate determination of affinity through kinetics difficult. […]

[4] = biological target: T4, hNotum-His (His tagged human Notum) (human, UniProt Q6P988 20-496); assay: sandwich ELISA: SC2.D2.2 coated at 2 ug/ml captures Notum-His, detected with biotinylated mouse polyclonal anti-Notum 0.5 ug/ml and streptavidin-HRP, TMB, OD450
T4 construct: also called human Notum-His; NOTUM-StrepHis
T4 sequence: T1 sequence (Q6P988 20-496)
Experimental: More specifically, murine SC2.D2.2 was absorbed on standard ELISA plates at 2 μg/ml in a 50 mM sodium carbonate buffer at pH9.6. After washing the plates with PBS containing 0.05% (v/v) Tween-20 (PBST), the plates were blocked in PBS containing 2% (w/v) bovine serum albumin (BSA buffer) for two hours at ambient temperature. The content of the plates was flicked off, and purified recombinant Notum-His at varying concentrations (i.e., to provide the standard curve) or patient samples diluted in BSA buffer were added to the plates for a minimum of two hours at ambient temperature. The plates were washed in PBST before adding Notum-specific mouse polyclonal antibody conjugated to biotin at 0.5 μg/ml in BSA buffer. After incubation for one hour, the plate was washed again with PBST and incubated for 30 minutes with a 1:2000 dilution of Streptavidin conjugated to horse radish peroxidase (Jackson Immuno Research). After washing all plates twice with PBST, 100 μl TMB substrate (Thermo Scientific) was added to the wells and incubated for 30 minutes in the dark. Color reaction was stopped by adding 100 μl/well 2M sulfuric acid. Absorbance at OD 450 nm was read in all wells using a standard plate reader.

B1: SC2.D2.2 (antibody, V domains shown)
VH: DVQLVESGGGLVQPGGSRKISCAASGFTFSSYGMHWVRQAPEKGLEWVAYISSSTVTTYYADTVKGRFTISRDNANNTLFLQMTSLRSEDTAMYYCSRQNWDGGYFDVWGAGTTVTVSS
VL: DIVLTQSLASLAVSLGQRATISCRASKSVSSSGYSYMHWYQQKPGQPPKLLIYLASNLESGVPARFSGSGSGTDFTLNIHPVEEEDAATYYCQHSRALPLTFGAGTKLELKR
notes: also called murine SC2.D2.2
effect on esterase activity of hNotum [1]: greatly reduced esterase activity
binding result [2]: no binding
Kd [3]: < 0.1 nM
EC50 (read off the curve) [4]: ~9 ng/mL
